Key:
[1] = biological target: glycosylated human proBNP (HyTest, Turku, Finland; Catalog No. 8GOB2) (human); experiment: sandwich CMIA, capture 15F11, 86.6 pM, against human NT-proBNP
[2] = biological target: human pro B-type natriuretic peptide (HyTest, Turku, Finland; Catalog No. 8PRO8) (human); experiment: as above
[3] = biological target: glycosylated human proBNP (HyTest, Turku, Finland; Catalog No. 8GOB2) (human); experiment: sandwich CMIA, capture 15C4, 577.4 pM, against human NT-proBNP
[4] = biological target: human pro B-type natriuretic peptide (HyTest, Turku, Finland; Catalog No. 8PRO8) (human); experiment: as above
[5] = biological target: glycosylated human proBNP (HyTest, Turku, Finland; Catalog No. 8GOB2) (human); experiment: sandwich CMIA, capture 15F11, analyte 0.0 pM (blank)
[6] = biological target: human pro B-type natriuretic peptide (HyTest, Turku, Finland; Catalog No. 8PRO8) (human); experiment: as above
[7] = biological target: human NT-pro B-type natriuretic peptide (HyTest, Turku, Finland; Catalog No. 8NT1) (human); experiment: as above
Chain of human NT-pro B-type natriuretic peptide (HyTest, Turku, Finland; Catalog No. 8NT1) (human) (chain, as listed by the source): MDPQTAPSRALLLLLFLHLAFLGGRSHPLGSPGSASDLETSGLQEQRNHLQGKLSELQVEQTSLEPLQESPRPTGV

[8] = biological target: glycosylated human proBNP (HyTest, Turku, Finland; Catalog No. 8GOB2) (human); experiment: sandwich CMIA, capture 15F11, analyte 577.4 pM
[9] = biological target: human pro B-type natriuretic peptide (HyTest, Turku, Finland; Catalog No. 8PRO8) (human); experiment: sandwich CMIA, capture 15F11, analyte 577.4 pM
[10] = biological target: human NT-pro B-type natriuretic peptide (HyTest, Turku, Finland; Catalog No. 8NT1) (human); experiment: sandwich CMIA, capture 15F11, analyte 577.4 pM
[11] = biological target: glycosylated human proBNP (HyTest, Turku, Finland; Catalog No. 8GOB2) (human); experiment: sandwich CMIA, capture 15F11, analyte 43.3 pM
[12] = biological target: human pro B-type natriuretic peptide (HyTest, Turku, Finland; Catalog No. 8PRO8) (human); experiment: sandwich CMIA, capture 15F11, analyte 43.3 pM
[13] = biological target: human NT-pro B-type natriuretic peptide (HyTest, Turku, Finland; Catalog No. 8NT1) (human); experiment: sandwich CMIA, capture 15F11, analyte 43.3 pM
[14] = biological target: glycosylated human proBNP (HyTest, Turku, Finland; Catalog No. 8GOB2) (human); experiment: sandwich CMIA, capture 15C4, analyte 86.6 pM
[15] = biological target: human pro B-type natriuretic peptide (HyTest, Turku, Finland; Catalog No. 8PRO8) (human); experiment: sandwich CMIA, capture 15C4, analyte 86.6 pM
[16] = biological target: human NT-pro B-type natriuretic peptide (HyTest, Turku, Finland; Catalog No. 8NT1) (human); experiment: sandwich CMIA, capture 15C4, analyte 86.6 pM
[17] = biological target: glycosylated human proBNP (HyTest, Turku, Finland; Catalog No. 8GOB2) (human); experiment: sandwich CMIA, capture 15F11, 43.3 pM, against human NT-proBNP
[18] = biological target: human pro B-type natriuretic peptide (HyTest, Turku, Finland; Catalog No. 8PRO8) (human); experiment: as above
[19] = biological target: glycosylated human proBNP (HyTest, Turku, Finland; Catalog No. 8GOB2) (human); experiment: sandwich CMIA, capture 15C4, analyte 288.7 pM
[20] = biological target: human pro B-type natriuretic peptide (HyTest, Turku, Finland; Catalog No. 8PRO8) (human); experiment: sandwich CMIA, capture 15C4, analyte 288.7 pM
[21] = biological target: human NT-pro B-type natriuretic peptide (HyTest, Turku, Finland; Catalog No. 8NT1) (human); experiment: sandwich CMIA, capture 15C4, analyte 288.7 pM
[22] = biological target: glycosylated human proBNP (HyTest, Turku, Finland; Catalog No. 8GOB2) (human); experiment: sandwich CMIA, capture 15C4, 288.7 pM, against human NT-proBNP
[23] = biological target: human pro B-type natriuretic peptide (HyTest, Turku, Finland; Catalog No. 8PRO8) (human); experiment: as above
[24] = biological target: glycosylated human proBNP (HyTest, Turku, Finland; Catalog No. 8GOB2) (human); experiment: sandwich CMIA, capture 15F11, 577.4 pM, against human NT-proBNP
[25] = biological target: human pro B-type natriuretic peptide (HyTest, Turku, Finland; Catalog No. 8PRO8) (human); experiment: as above
[26] = biological target: glycosylated human proBNP (HyTest, Turku, Finland; Catalog No. 8GOB2) (human); experiment: sandwich CMIA, capture 15C4, analyte 577.4 pM
[27] = biological target: human pro B-type natriuretic peptide (HyTest, Turku, Finland; Catalog No. 8PRO8) (human); experiment: sandwich CMIA, capture 15C4, analyte 577.4 pM
[28] = biological target: human NT-pro B-type natriuretic peptide (HyTest, Turku, Finland; Catalog No. 8NT1) (human); experiment: sandwich CMIA, capture 15C4, analyte 577.4 pM
[29] = biological target: glycosylated human proBNP (HyTest, Turku, Finland; Catalog No. 8GOB2) (human); experiment: sandwich CMIA, capture 15C4, analyte 43.3 pM
[30] = biological target: human pro B-type natriuretic peptide (HyTest, Turku, Finland; Catalog No. 8PRO8) (human); experiment: sandwich CMIA, capture 15C4, analyte 43.3 pM
[31] = biological target: human NT-pro B-type natriuretic peptide (HyTest, Turku, Finland; Catalog No. 8NT1) (human); experiment: sandwich CMIA, capture 15C4, analyte 43.3 pM
[32] = biological target: glycosylated human proBNP (HyTest, Turku, Finland; Catalog No. 8GOB2) (human); experiment: sandwich CMIA, capture 15C4, 43.3 pM, against human NT-proBNP
[33] = biological target: human pro B-type natriuretic peptide (HyTest, Turku, Finland; Catalog No. 8PRO8) (human); experiment: as above
[34] = biological target: human NT-pro B-type natriuretic peptide (HyTest, Turku, Finland; Catalog No. 8NT1) (human); experiment: sandwich CMIA, capture 15F11, analyte 288.7 pM

Chain of human pro B-type natriuretic peptide (HyTest, Turku, Finland; Catalog No. 8PRO8) (human) (chain, as listed by the source): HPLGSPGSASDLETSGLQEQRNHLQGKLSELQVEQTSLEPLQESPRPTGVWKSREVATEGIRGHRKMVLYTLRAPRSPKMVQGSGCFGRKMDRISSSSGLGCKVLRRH

anti-human NT-proBNP/anti-human proBNP labeled monoclonal antibody 29D12 (HyTest, Turku, Finland)
% Cross-reactivity [1]: 136% | % Cross-reactivity [2]: 49.3% | % Cross-reactivity [3]: 0.3% | % Cross-reactivity [4]: 14% | Analyte rlus [5]: 912 rlus | Analyte rlus [6]: 912 rlus | Analyte rlus [7]: 912 rlus | Analyte rlus [8]: 38700 rlus | Analyte rlus [9]: 11400 rlus | Analyte rlus [10]: 33900 rlus | Analyte rlus [11]: 2320 rlus | Analyte rlus [12]: 1570 rlus | Analyte rlus [13]: 1990 rlus | Analyte rlus [14]: 1020 rlus | Analyte rlus [15]: 3830 rlus | Analyte rlus [16]: 19300 rlus | % Cross-reactivity [17]: 132% | % Cross-reactivity [18]: 61.2% | Analyte rlus [19]: 1220 rlus | Analyte rlus [20]: 12100 rlus | Analyte rlus [21]: 82800 rlus | % Cross-reactivity [22]: 0.4% | % Cross-reactivity [23]: 13.7% | % Cross-reactivity [24]: 115% | % Cross-reactivity [25]: 31.8% | Analyte rlus [26]: 1420 rlus | Analyte rlus [27]: 25900 rlus | Analyte rlus [28]: 180000 rlus | Analyte rlus [29]: 877 rlus | Analyte rlus [30]: 2170 rlus | Analyte rlus [31]: 8870 rlus | % Cross-reactivity [32]: -0.2% | % Cross-reactivity [33]: 16% | Analyte rlus [34]: 14600 rlus

— patent US20120122239A1
